Laboratory results taken from patent US7205275 (dated 2007).
Primed or numbered codes have the meaning given here. Where no end group is shown, it is not given here. [ ]: non-standard residue; d: D form. Fc(3) = Fc: non-antigen-binding fragment of an antibody from proteolytic digestion of a whole antibody (vehicle); Fc(4) = non-antigen-binding fragment of an antibody (from proteolytic digestion of a whole antibody); Fc = immunoglobulin Fc domain fused to the peptide (peptibody); Fc(7) = Fc domain, peptide fused N- or C-terminal to it; Fc″ = Fc domain of the peptibody fusion

T1: human Ang-2 (human, UniProt O15123)
T1 chain: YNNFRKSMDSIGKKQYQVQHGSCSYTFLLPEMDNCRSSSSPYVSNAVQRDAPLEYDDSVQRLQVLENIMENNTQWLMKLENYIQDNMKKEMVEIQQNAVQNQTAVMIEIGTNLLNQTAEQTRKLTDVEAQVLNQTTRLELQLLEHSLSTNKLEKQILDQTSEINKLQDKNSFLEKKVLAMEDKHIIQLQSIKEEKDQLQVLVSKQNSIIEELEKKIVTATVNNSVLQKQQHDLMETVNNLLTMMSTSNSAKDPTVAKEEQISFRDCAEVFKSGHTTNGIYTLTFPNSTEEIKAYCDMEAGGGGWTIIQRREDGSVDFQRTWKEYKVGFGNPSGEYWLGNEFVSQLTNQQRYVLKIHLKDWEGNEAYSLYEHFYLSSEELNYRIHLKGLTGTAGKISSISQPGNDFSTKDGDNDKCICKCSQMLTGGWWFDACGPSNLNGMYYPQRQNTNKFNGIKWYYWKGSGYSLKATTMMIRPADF

B1: Con1-2 (C) (peptide)
chain: M[Fc]GGGGGAQQTWDDPCMHILGPVTWRRCILE
modifications: not fully specified (bridges); cysteine pairing not given here; also: Fc fusion domain at position 2

Target: T1, human Ang-2
Assay: competition ELISA vs Tie-2

IC50 [nM]	Binder
15	M[Fc(7)]GGGGGAQFDYCEGVEDPFTFGCDNHLE (not fully specified (bridges); cysteine pairing not given here) [12-9 (C)]
2.05	M[Fc(7)]GGGGGAQAQDYCEGMEDPFTFGCEMQKLE (not fully specified (bridges); cysteine pairing not given here) [12-9-4 (C)]
0.09	MGAQEDYMPLDALDAQLYEQFILLHGLEGGGGG-{Fc(3)} [L1-20 (N)]
0.08	MGAQYKFTPLDDLEQTLYEQWTLQHVLEGGGGG[Fc(3)] [L1-12 (N)]
2.68	M[Fc(7)]GGGGGAQLQDYCEGVEDPFTFGCEKQRLE (not fully specified (bridges); cysteine pairing not given here) [12-9-C1 (C)]
0.95	M[Fc(7)]GGGGGAQHQEYCEGMEDPFTFGCEYQGLE (not fully specified (bridges); cysteine pairing not given here) [12-9-6 (C)]
1.41	M[Fc(7)]GGGGGAQLQDYCEGVEDPFTFGCENQRLE (not fully specified (bridges); cysteine pairing not given here) [12-9-C2 (C)]
0.56	MGAQQKFKPLDELEQTLYEQWTLQQRLEGGGGG-Fc [L1-C1 (N)]
0.08	MGAQVKYKPLDELDEWLYHQFTLHHQLEGGGGG[Fc(3)] [L1-17 (N)]
0.03	MGAQTNYKPLDELDATLYEHWILQHSLEGGGGG[Fc(7)] [AC6-L1 (N)]
1.84	M[Fc(7)]GGGGGAQGFEYCDGMEDPFTFGCDKQTLE (not fully specified (bridges); cysteine pairing not given here) [12-9-1 (C)]
0.05	MGAQTKFQPLDELDQTLYEQWTLQQRLEGGGGG-Fc [L1-C2 (N)]
0.81	M[Fc(7)]GGGGGAQLQEWCEGVEDPFTFGCEKQRLE (not fully specified (bridges); cysteine pairing not given here) [12-9-3 (C)]
0.11	MGAQQKFQPLDELEETLYKQWTLQQRLEGGGGG[Fc(3)] [L1-16 (N)]
> 1000	B1
0.08	MGAQVKFKPLDALEQTLYEHWMFQQALEGGGGG-Fc [L1-4 (N)]
8.42	M[Fc(7)]GGGGGAQKLEYCDGMEDPFTQGCDNQSLE (not fully specified (bridges); cysteine pairing not given here) [12-9-2 (C)]
1.62	MGAQSKFKPLDELEQTLYEQWTLQHALEGGGGG-Fc [L1-9 (N)]
0.04	MGAQQKYQPLDELDKTLYDQFMLQQGLEGGGGG[Fc(3)] [L1-15 (N)]
0.16	MGAQTKFNPLDELEQTLYEQWTLQHQLEGGGGG-{Fc″} [L1-3 (N)]
0.04	MGAQLNFTPLDELEQTLYEQWTLQQSLEGGGGG[Fc(3)] [L1-2 (N)]

Target: T1, human Ang-2
Assay: competition ELISA vs Tie-2
Remark: another data set of the same source

IC50 [nM]	Binder
> 1000	M[Fc(7)]GGGGGAQMGGAGRCEWDPWTCQLLQGWLE (not fully specified (bridges); cysteine pairing not given here) [Con4-13 (C)]
0.3	M[Fc]GGGGGAQPVNQEDCEWDPWTCEHMPPMLE (not fully specified; cysteine pairing not given here) [Con4-39 (C)]
0.48	M[Fc(4)]GGGGGAQWAQQEECAWDPWTCDHMVGLLE (not fully specified; cysteine pairing not given here) [Con4-45 (C)]
86.6	M[Fc(7)]GGGGGAQTQGLHQCEWDPWTCKVLWPSLE (not fully specified (bridges); cysteine pairing not given here) [Con4-10 (C)]
0.17	M[Fc(4)]GGGGGAQLRHQEGCEWDPWTCEHMFDWLE (not fully specified; cysteine pairing not given here) [Con4-42 (C)]
0.26	M[Fc(4)]GGGGGAQQHWQEECEWDPWTCDHMPSKLE (not fully specified; cysteine pairing not given here) [Con4-46 (C)]
> 1000	M[Fc(7)]GGGGGAQMFLPNECQWDPWTCSNLPEALE (not fully specified (bridges); cysteine pairing not given here) [Con4-14 (C)]
1.54	M[Fc(7)]GGGGGAQVLGGQGCEWDPWTCRLLQGWLE (not fully specified (bridges); cysteine pairing not given here) [AC4-Con4 (C)]
> 1000	M[Fc(7)]GGGGGAQRPEDMCSQWDPWTWHLQGYCLE (not fully specified (bridges); cysteine pairing not given here) [Con4-26 (C)]
0.52	M[Fc(7)]GGGGGAQFGWSHGCEWDPWTCEHMGSTLE (not fully specified (bridges); cysteine pairing not given here) [AC2-Con4 (C)]
0.31	M[Fc(7)]GGGGGAQRAPQEDCEWDPWTCAHMDIKLE (not fully specified (bridges); cysteine pairing not given here) [Con4-25 (C)]
0.18	M[Fc(4)]GGGGGAQSISHEECEWDPWTCEHMQVGLE (not fully specified; cysteine pairing not given here) [Con4-43 (C)]
2.75	M[Fc(4)]GGGGGAQTTIGSMCEWDPWTCAHMQGGLE (not fully specified (bridges); cysteine pairing not given here) [Con4-C1 (C)]
3.21	M[Fc(7)]GGGGGAQTKGKSVCQWDPWTCSHMQSGLE (not fully specified (bridges); cysteine pairing not given here) [Con4-21 (C)]
0.16	M[Fc(7)]GGGGGAQNRLQEVCEWDPWTCEHMENVLE (not fully specified (bridges); cysteine pairing not given here) [Con4-31 (C)]
0.49	M[Fc]GGGGGAQLPGQEDCEWDPWTCEHMVRSLE (not fully specified; cysteine pairing not given here) [Con4-37 (C)]
6.94	M[Fc(7)]GGGGGAQAVGSQTCEWDPWTCAHLVEVLE (not fully specified (bridges); cysteine pairing not given here) [Con4-16 (C)]
9.88	M[Fc(7)]GGGGGAQTSQRVGCEWDPWTCQHLTYTLE (not fully specified (bridges); cysteine pairing not given here) [Con4-23 (C)]
0.96	M[Fc(7)]GGGGGAQGPRISTCQWDPWTCEHMDQLLE (not fully specified (bridges); cysteine pairing not given here) [Con4-17 (C)]
